# B1: C-terminal fragment of human NLRX1 (residues 629-975) (domain or fragment, UniProt Q86UT6 629-975, looked up)
# chain: GLLSAHNRAVLAQLGCPIKNLDALENAQAIKKKLGKLGRQVLPPSELLDHLFFHYEFQNQRFSAEVLSSLRQLNLAGVRMTPVKCTVVAAVLGSGRHALDEVNLASCQLDPAGLRTLLPVFLRARKLGLQLNSLGPEACKDLRDLLLHDQCQITTLRLSNNPLTAAGVAVLMEGLAGNTSVTHLSLLHTGLGDEGLELLAAQLDRNRQLQELNVAYNGAGDTAALALARAAREHPSLELLHLYFNELSSEGRQVLRDLGGAAEGGARVVVSLTEGTAVSEYWSVILSEVQRNLNSWDRARVQRHLELLLRDLEDSRGATLNPWRKAQLLRVEGEVRALLEQLGSSGS
# Target: the molecule itself
# Test: SEC
protein,measurement,value
B1,stoichiometry N,2
